Results from the domain aggregation screens of Martell et al. (2025).

Test: soluble fraction after stress (log2 fold change); higher = more stays soluble; pooled small domains, quantitative proteomics
Conditions: stress: pH 4
In short: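 High-throughput quantitative proteomics was run on pooled custom libraries of small protein domains following pH 4 stress. Fold changes are on a log2 scale; higher values mean more of a domain remained soluble. The fold change in soluble amount is taken as a measure of aggregation propensity.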

Sequence: HMNENYNLSKREKEVLDLLVNGKSYKVIATELAISYETVHSHIKKIYHKLHVSSIGEAVSKTIKQKIL
- soluble fraction (log2): -0.561

Sequence: HMNRIGERIKRKRELRNLNLGELAEKVGISASALSQIEKSKSFPSVITLKSIAEQLRTTVGELIGEN
- soluble fraction (log2): 0.328

Sequence: HMADLPQATALADVKGDVQMQGIQFGYDPEKIIIHDLNLHARPGSLVAIVGPTGAGKTTIINLLMRFYD
- soluble fraction (log2): 0.124

Sequence: HMREWPLWEIFIRGQHGLNHRHVGSLHAPDAAMAIGNARDVYTRRNEGVSIWAVRSADVVASVPSE
- soluble fraction (log2): -1.44

Sequence: HMYNTDAMGVRIGELRRAKGLTQEAFAKTLGISAQAVSKWETGLGFPDISLLPMIAETLGTKIETLFGAE
- soluble fraction (log2): -0.272

Sequence: HMAEMRYLDQIYEVNVPLPDLSLEDGDLLARWAVNFHQRYEELFSYRQSDQEIRLVTLRVTVLGELP
- soluble fraction (log2): -1.67

Sequence: HMDTPMYMAIIEEVRFQIANEILKEGEQLPSIRNLAKTLKVSVITVKRAYKELEEAGYITTIPAKGSKVS
- soluble fraction (log2): -0.167

Sequence: HMGMTRPLFVTDPGLVRIGLVSPIFEKLGSGKLSPQLFDQVKEDPPEQTVFDGVEFARETGIDGVIGFG
- soluble fraction (log2): 0.0343

Sequence: HMPTITSPMVGTFYRAPSPGAAPFIEVGDTVKKGQVIGIIEAMKLLNEVEADKDGVVQAFAAENGEL
- soluble fraction (log2): -0.681

Sequence: HMSYEDLIQAVSGHFGIEIRALLSEDRKKENMIPRQVAMYLLKNKLHYTYERIGNIFSGRNHTAVMYSV
- soluble fraction (log2): -0.403

Sequence: HMEKKPYGEMHNVMLTDEELEKLRHDYPAHFAEYIQRLSLHIDAKGARYKSHYAVIRKWLIADGVKA
- soluble fraction (log2): 0.0221

Sequence: HMIKIEDYTNKDYNKVEASLEVKGLVVNIEYKAVDDKAKYKGKEDLIIDQSVKKDATLVKGDTIILYLPK
- soluble fraction (log2): 0.0435

Sequence: HMGSGQIRYITENTVRVVYGTSKENEFVFQDGKPYPKDTPYHIHYTRNLEEYFMSGVEHDKNSKIILKVD
- soluble fraction (log2): -0.792

Sequence: HMGGLSAEQKNGIQSVLKNFDPKNLTSADAKSITSEFKKLGVQPGKDLETTMAASGFDAKEVGRLAF
- soluble fraction (log2): 0.177

Sequence: HMTKIAFPQMLNKYRLQKNLTMEQLAEEVGKTKSTISKWEAGTRSPKIYEIEEIAKYFGVEPQTMMF
- soluble fraction (log2): -0.548

Sequence: HMWKQISSEAELLPAVRSVIQANPGEAEKLRNGEMAPLEFLTGLVMKKTNGMAVPQIVKTLIKKELKI
- soluble fraction (log2): 0.0805

Sequence: HMKMPNGYGSVYKLSGNRRKPWAARVTDGWVNDTKTKKSKQKYKFIGFYETRKEALLALADYNANP
- soluble fraction (log2): 0.22

Sequence: HMSEFVIPLAKYNKALYTQVSLGMRFRMLFETEDSGVRRYMGTITGIGDLDPIRWKNSHWRNLQV
- soluble fraction (log2): 0.22

Sequence: HMEQEVLDLLFDAIRSLPEKYRRLFDMSFEQGLKNAEIAALLHVSESAVKKQKASMIQQLRDDLLRKTGKD
- soluble fraction (log2): -0.564

Sequence: HMETFGLSQRELQILSQLHKGQPLKEFAASLFITESTLKTHLSAIYRKMSVKNRVQAIEKAKQSGL
- soluble fraction (log2): -0.273

Sequence: HMGPRVSAGPGRHRVQPGDTLDDIAARYRVSSRDLMLVNGLRNANHVEAGQTLKLPSNAVIA
- soluble fraction (log2): ≥ 0.43

Sequence: HMGGLLSVIQKKAINNVKDRYSENAIKSMTKVQLHDLIKAETSRLLDPANAKETPEYQAFLEE
- soluble fraction (log2): 0.116

Sequence: HMTPTITNALEEAEKAVSEVQEGKKEIELTPQGAYIRHLQHAIADRYGISSTSTGRDPKRKVIIY
- soluble fraction (log2): -0.437

Sequence: HMPEVTMSYSARNQVVSFSKATQYEIVDEFGTVVLRGVGNQATLRYLSRGDYFVNFGAGTEVLKK
- soluble fraction (log2): 0.089

Sequence: HMSNTPHSREVLLEMDAVRRLLAVGEEKGEVDRADLQGAFEEAELGRGDLDGVLSILREYDVPLAR
- soluble fraction (log2): -0.15

Sequence: HMGNYEEAILAFEAAIKIDPKNADAYRKLAEAYEKTGDEDAALRTLETGAEATGDRELADLAEKKRQELDA
- soluble fraction (log2): 0.22

Sequence: HMRAVFEQLRIGQTLAGVVKAQEKGFSLVEIDGQTVAMRLPHPAAVGDTLRLRFAGHMPQAVFLLES
- soluble fraction (log2): -0.178

Sequence: HMPTVLKQGSTGQEVKELQQALSKLGYRVTVTGEFDTATHYGVVRFQRKHRLTIDGIVGPQTLSKIRAHQK
- soluble fraction (log2): -0.0726

Sequence: HMFAATGVVNAPSGLVLRETASKGGNPLATVPDKAQVEIVEEDGEWYKVKVNEQTGYLFAEFVNKTE
- soluble fraction (log2): -0.13

Sequence: HMDVIDDAQAMEIALEDAGLSMDDLDRYELELHTKRSELVYSIELKSGTEEYEYDLRAADGTILKRDTDF
- soluble fraction (log2): -0.799

Sequence: HMDIGTYTVTASALNIRQYPTASSAKTGSYPNGSIVTIYEYLTDGSWGRTDDGWISMNYVSRRY
- soluble fraction (log2): -1.37

Sequence: HMYAMTAEDWIVSGNRKYINDDLQGAIADYTKAIEIDPNYAAIYLVRGKAKYELKNYQGAIEDYTKAIE
- soluble fraction (log2): -1.48

Sequence: HMFVEEGSLKKITFDTYEFNITDNLKSLRVTYQGLLPNLFREGQGVVIEGILLEQNYIQANTVF
- soluble fraction (log2): -0.328

Sequence: HMIGGEDEILKVVLEVLEEKPEAIEQYKNGRTNIVDFLVGQVMKKTRGQANPATTREFMIREIEK
- soluble fraction (log2): -0.999

Sequence: HMYAGTWTTESGQWKYRQDDGTYAKGWLQDTDGRWYYFDANGRMLSNTATPDGYQVGEDGAWVNH
- soluble fraction (log2): -0.651

Sequence: HMTVDIADALRVLGLSDAPDWSDVRAAHRRAIVRTHPDAGGSAGDAARVNQAFDLLRKISGNGERPIPG
- soluble fraction (log2): 0.0966

Sequence: HMDAVSYTQFMQDAKAGRIKKVIVHQSGILDVTTTEGRRFNLTSPGDLWMVGDLVKDGVDVVGAP
- soluble fraction (log2): 0.139

Sequence: HMAIPTTDSDKATDAQIKQIKLLGDIHPNLKLDAWLERNHVTWETLTREQAGNMMKAIKNKYGD
- soluble fraction (log2): 0.132

Sequence: HMVSRKIENPYWANKEKQHIIAEFFYPDTNKRVTASIMNDGSNRDYEEILRGYSIEQIDANTNRRLEER
- soluble fraction (log2): -0.811

Sequence: HMDNTFEEVKEKLLDLLKERPLTPAEVSKRMEEDKNILAQVIQYLLEEEIIKTEDGMLSKVIG
- soluble fraction (log2): -0.0649

Sequence: HMQEKIREVANRIRELRESLEVSPEEMADHLKVTIGTYIEYERGEADIPASVLFGIAHRLNVDMAVLL
- soluble fraction (log2): -1.36

Sequence: HMGIAERKEKQKLEIRNAILEASRKLIVEEGFEKVTMRKIADLIEYSPTTVYLYFKDKNEILFHLHQ
- soluble fraction (log2): -0.798

Sequence: HMGSFTDKQIKQAFGVLNDPRFKQGNYDGAVAVINKIAPGLADHPSVANALKRANEATQDIAQQTQA
- soluble fraction (log2): 0.161

Sequence: HMNADSLIGENIRISERVSNMDQTGMAVVHGQEWTVRTRNDNEIIEPGEEAKILAISGVKLIVEK
- soluble fraction (log2): -0.0665

Sequence: HMDFDPDVPSREDILQAFRDSKPPLTVNALISEFGLSRDASIVGLERRMGAMQRDGQLEQTPSGWQLSV
- soluble fraction (log2): 0.144

Sequence: HMNDTLQEYFEALERLKSNNPINVPKNTKINNDSVALEAGRKRGSIKKSREIFAELIEAINNAS
- soluble fraction (log2): -0.186

Sequence: HMALWFDEWKKYQDTIASADLLPDKAERDALIAQAEDRFNYWMDIYPRSASLNHSFDDLYEEHRRKIE
- soluble fraction (log2): -1.33

Sequence: HMDPEEETLKNMQRMLQDSGPLKKTEFSLLAKSLGIAEKKARKLIDRGRGRFWTVESGEQKNTQLVTPIQ
- soluble fraction (log2): -0.261

Sequence: HMFNLFPHLSVLRNITLAPQKVKGLNRSESNEIAMSLLERVGIPEQSDKFPSQLSGGQQQRVAIARALAM
- soluble fraction (log2): 0.22

Sequence: HMPNNNDIVLDRVSFGYHEKEVLHGIDMTIREGTVNALVGPSGSGKSTIAKLIAGLWDVDGGSISF
- soluble fraction (log2): 0.137

Sequence: HMQSSDQTDNIYENAVSIVLETGKASASHLQRVLGIDYNLAAHLIDKMEDGGLLSPPNYLGHRDVYGYT
- soluble fraction (log2): -1.06

Sequence: HMSPAPVSVDHLAFPTRDLEATDHFYSKVVGATLVHAESGYSPSWKSDYLLITYALPDGTRLSFFDWP
- soluble fraction (log2): -0.133

Sequence: HMDLKHNQITMRELLRNKQAYLLLYKEFPMFMTPAILQNIRPLTLQQIIQMVRPYISRPKLNMLLEQLENI
- soluble fraction (log2): 0.22

Sequence: HMKGSIMIETILKELKKNNKGFNFLLEKFDISEDELMKIINDLIHDKKVFLNSNNKYEIVSD
- soluble fraction (log2): -0.958

Sequence: HMEREQNIEHGRAIVERELKRLGLSDVYTIADIATALRHDDVDQFLAKIGFGDIQSTQIGGAIAALQQR
- soluble fraction (log2): -0.328

Sequence: HMDGIGLRVRMIREGVGLTQKQLAEHLGMQRTALVQVEAGSRKLSASELIGVARFFNITVEQFLDPEK
- soluble fraction (log2): -1.72

Sequence: HMLGKSNAERQLDLILGAIERSITGVSRSKLMQAYHLDSRGATAAFETLEQRGLITRSKSGRTELLIPTRV
- soluble fraction (log2): 0.126

Sequence: HMYLGRKATLLSSISGEKMGNAEVLADGNLMSIYVKSLTGEPLSYGSTVLIIKHSEDQNFYLVQN
- soluble fraction (log2): -0.65

Sequence: HMRIQTVDYNTFISMVEDGKVDAAEIQQQENRILFSDQDQKVYKTAMVPDDDLTQRLLDAGVSTNG
- soluble fraction (log2): -0.837

Sequence: HMENLIEELTAKNKEYIHSVTKQLILVGKSDEEVKEILNDILPQIIEGQKSGIIARKLLGAPTEFVSQYQP
- soluble fraction (log2): -0.317

Sequence: HMVNDDTIAATEAEILALLADKHRHHITELNSIRRPYEQIDAALSSLINEEKIFQEDGMLFV
- soluble fraction (log2): -0.908

Sequence: HMVSKQVTVNGIQYYQYTVQKSEGFYAISTKFGVTQDDIILANPSTKEGLRVGQEILIPIKT
- soluble fraction (log2): -0.0976

Sequence: HMSVLLDDLSPREREILQLVVEGHSSTKIAGMLGLASATVDTYRSRLMAKLHIDNLPDLVRFAIRHGLIS
- soluble fraction (log2): -0.122

Sequence: HMGPDTVDRTRRFKWVDNEVVVNFGKNAGRTLRDLAENDPGFLRWIVRSDFSDEVRTIANDALMGKFPTRK
- soluble fraction (log2): -0.151

Sequence: HMEGDAFAFTGDIQKDLLSITAVHPMRREAVDALIAKAGASWAIVEKLLAHGELTEAKHDGHLFYLRKF
- soluble fraction (log2): -0.354

Sequence: HMVDLAPTEEIIKNLPNNSRSLLIPTLQKIQNAYRYLPSPAMELLSEFLNVTRAEIYGVISFYPSLL
- soluble fraction (log2): 0.129

Sequence: HMLIPTISVTKEGQLRFENIPVSWEELGTRLRDVSDLDKIKIYADAESDALTISEIMKTAANVGIVQFVLV
- soluble fraction (log2): -1.13

Sequence: HMGKKYVPGMAVKLSAVPLYAASTSKVPSTHVTGTYYLWDDEVVRGRLRITNLKSRVGISGQVTGWIDKDR
- soluble fraction (log2): 0.0244

Sequence: HMESPELIHILKEAEWQIWQQIQGLPEKQRIAMTLFAMDDLSYQEIADVMKVSVSAIESLLFRARTQLKKY
- soluble fraction (log2): -0.71

Sequence: HMPIDIEPVLQWIRDNSIDGIGPARSMYHSAAAAAGLPSYSSLQLRKWTWPLLLDAAGVQRR
- soluble fraction (log2): -0.265

Sequence: HMNNISKKIKELREQNNITQNKLANDLFIKQQTVAQWENGSRALKADSIISLAKYFNVSTDYLLGLTEN
- soluble fraction (log2): -0.634

Sequence: HMRLATSELVYRIRALIRDQELQPGERLGSERALAQSLGISRSDLRMALAVLEASHEVIRKIGRAGGIVVS
- soluble fraction (log2): ≥ 0.43

Sequence: HMAMNLQETVLMQLRDLILRGTFEPGQRLSEQPLAERLKASRTPVRSALVTLEQEGLIEASETGKYLVRQ
- soluble fraction (log2): -0.845

Sequence: HMKFHENLIALRRREGWSQEELGNRIGVTRQTVSKWELGLTTPELEKLVQLADVFGMTTDQLVGR
- soluble fraction (log2): -0.111

Sequence: HMTHHGHSIKRIRDMLGIKQETLAAELNMTQQAFSKLEQKEQIEDEMLDKIAKILHVSTEALKT
- soluble fraction (log2): -0.459

Sequence: HMITDSSEIEAMVDALVKENPGQAEQYKDGNMKVAGWFIGQIMKVSKGKANPQLVGDLLKKKLG
- soluble fraction (log2): ≥ 0.43
